Test results from paper PMC6511873 (Nucleic Acids Research, 2019).
One block for each binder: values may come before it.

How the values were obtained:
[1] = biological target: T1, Recombinant Fc-extracellular domain fusion of human Jagged-2 (Homo sapiens, UniProt Q9Y219); assay: ELISA
[2] = biological target: T1, Recombinant Fc-extracellular domain …; assay: ELISA; remark: listed apart in the source

T1 sequence (Q9Y219 27-1080): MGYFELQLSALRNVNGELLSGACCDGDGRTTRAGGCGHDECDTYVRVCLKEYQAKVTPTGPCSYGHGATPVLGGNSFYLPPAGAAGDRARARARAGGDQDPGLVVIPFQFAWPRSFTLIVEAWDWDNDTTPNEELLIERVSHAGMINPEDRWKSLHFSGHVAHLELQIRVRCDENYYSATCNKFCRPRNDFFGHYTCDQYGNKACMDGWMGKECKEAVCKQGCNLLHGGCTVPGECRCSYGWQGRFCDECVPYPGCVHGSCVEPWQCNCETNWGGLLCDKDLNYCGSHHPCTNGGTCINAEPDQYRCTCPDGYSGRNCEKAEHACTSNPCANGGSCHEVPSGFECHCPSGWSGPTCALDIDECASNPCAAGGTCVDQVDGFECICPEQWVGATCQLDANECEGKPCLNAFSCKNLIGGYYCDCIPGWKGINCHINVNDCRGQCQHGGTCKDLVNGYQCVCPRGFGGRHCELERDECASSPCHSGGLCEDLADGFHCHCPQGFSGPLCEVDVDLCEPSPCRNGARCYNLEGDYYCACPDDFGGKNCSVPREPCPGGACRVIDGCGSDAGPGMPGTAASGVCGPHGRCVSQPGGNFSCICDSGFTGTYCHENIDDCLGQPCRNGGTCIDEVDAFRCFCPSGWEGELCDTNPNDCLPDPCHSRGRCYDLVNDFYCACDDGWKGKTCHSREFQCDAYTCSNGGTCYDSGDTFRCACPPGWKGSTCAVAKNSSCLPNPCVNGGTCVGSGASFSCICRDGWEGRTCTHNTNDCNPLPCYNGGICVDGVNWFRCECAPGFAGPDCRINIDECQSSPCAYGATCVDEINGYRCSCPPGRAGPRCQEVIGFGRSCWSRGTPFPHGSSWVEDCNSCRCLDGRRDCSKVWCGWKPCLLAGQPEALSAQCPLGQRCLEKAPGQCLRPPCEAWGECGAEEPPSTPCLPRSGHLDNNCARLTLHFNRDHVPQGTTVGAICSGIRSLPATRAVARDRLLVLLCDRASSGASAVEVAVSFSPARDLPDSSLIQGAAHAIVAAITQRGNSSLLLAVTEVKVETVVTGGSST

binding result [1]: binds
B1: Fab J2/F/R6 (purified) (Fab, V domains shown)
VH: EVQLVESGGGLVQPGGSLRLSCAASGFNLSYSSMHWVRQAPGKGLEWVAYISPSYGYTSYADSVKGRFTISADTSKNTAYLQMNSLRAEDTAVYYCARAHWSSYVSGGWAYPHHSGMDYWGQGTLVTVSS
VL: DIQMTQSPSSLSASVGDRVTITCRASQSVSSAVAWYQQKPGKAPKLLIYSASSLYSGVPSRFSGSRSGTDFTLTISSLQPEDFATYYCQQSYASVLITFGQGTKVEIK

EC50 [2]: 24.6 nM
B2: Fab J2/F/R7 (purified) (Fab, V domains shown)
VH: EVQLVESGGGLVQPGGSLRLSCAASGFNIYSSSMHWVRQAPGKGLEWVAYISPSYSYTYYADSVKGRFTISADTSKNTAYLQMNSLRAEDTAVYYCARSYWYSHYAWWWASYSVVGIDYWGQGTLVTVSS
VL: DIQMTQSPSSLSASVGDRVTITCRASQSVSSAVAWYQQKPGKAPKLLIYSASSLYSGVPSRFSGSRSGTDFTLTISSLQPEDFATYYCQQYASYPITFGQGTKVEIK

binding result [1]: binds
B3: Fab J2/F/R4 (purified) (Fab, V domains shown)
VH: EVQLVESGGGLVQPGGSLRLSCAASGFNLYSSYIHWVRQAPGKGLEWVAYISPSYGYTYYADSVKGRFTISADTSKNTAYLQMNSLRAEDTAVYYCARYYYSGWAVYAGMDYWGQGTLVTVSS
VL: DIQMTQSPSSLSASVGDRVTITCRASQSVSSAVAWYQQKPGKAPKLLIYSASSLYSGVPSRFSGSRSGTDFTLTISSLQPEDFATYYCQQWHHPPAPITFGQGTKVEIK
